B1: Kapβ2: nuclear import receptor karyopherin-β2, recombinant (protein)
chain: MVWDRQTKMEYEWKPDEQGLQQILQLLKESQSPDTTIQRTVQQKLEQLNQYPDFNNYLIFVLTKLKSEDEPTRSLSGLILKNNVKAHFQNFPNGVTDFIKSECLNNIGDSSPLIRATVGILITTIASKGELQNWPDLLPKLCSLLDSEDYNTCEGAFGALQKICEDSAEILDSDVLDRPLNIMIPKFLQFFKHSSPKIRSHAVACVNQFIISRTQALMLHIDSFIENLFALAGDEEPEVRKNVCRALVMLLEVRMDRLLPHMHNIVEYMLQRTQDQDENVALEACEFWLTLAEQPICKDVLVRHLPKLIPVLVNGMKYSDIDIILLKGDVEEDETIPDSEQDIRPRFHRSRTVAQQHDEDGIEEEDDDDDEIDDDDTISDWNLRKCSAAALDVLANVYRDELLPHILPLLKELLFHHEWVVKESGILVLGAIAEGCMQGMIPYLPELIPHLIQCLSDKKALVRSITCWTLSRYAHWVVSQPPDTYLKPLMTELLKRILDSNKRVQEAACSAFATLEEEACTELVPYLAYILDTLVFAFSKYQHKNLLILYDAIGTLADSVGHHLNKPEYIQMLMPPLIQKWNMLKDEDKDLFPLLECLSSVATALQSGFLPYCEPVYQRCVNLVQKTLAQAMLNNAQPDQYEAPDKDFMIVALDLLSGLAEGLGGNIEQLVARSNILTLMYQCMQDKMPEVRQSSFALLGDLTKACFQHVKPCIADFMPILGTNLNPEFISVCNNATWAIGEISIQMGIEMQPYIPMVLHQLVEIINRPNTPKTLLENTAITIGRLGYVCPQEVAPMLQQFIRPWCTSLRNIRDNEEKDSAFRGICTMISVNPSGVIQDFIFFCDAVASWINPKDDLRDMFCKILHGFKNQVGDENWRRFSDQFPLPLKERLAAFYGV
modifications: left off: GST, end not stated, cleaved
notes: nuclear import receptor karyopherin-β2, recombinant
B2: FUS-ΔNLS: FUS (1-500, FUS-ΔNLS) (protein)
chain: MASNDYTQQATQSYGAYPTQPGQGYSQQSSQPYGQQSYSGYSQSTDTSGYGQSSYSSYGQSQNTGYGTQSTPQGYGSTGGYGSSQSSQSSYGQQSSYPGYGQQPAPSSTSGSYGSSSQSSSYGQPQSGSYSQQPSYGGQQQSYGQQQSYNPPQGYGQQNQYNSSSGGGGGGGGGGNYGQDQSSMSSGGGSGGGYGNQDQSGGGGSGGYGQQDRGGRGRGGSGGGGGGGGGGYNRSSGGYEPRGRGGGRGGRGGMGGSDRGGFNKFGGPRDQGSRHDSEQDNSDNNTIFVQGLGENVTIESVADYFKQIGIIKTNKKTGQPMINLYTDRETGKLKGEATVSFDDPPSAKAAIDWFDGKEFSGNPIKVSFATRRADFNRGGGNGRGGRGRGGPMGRGGYGGGGSGGGGRGGFPSGGGGGGGQQRAGDWKCPNPTCENMNFSWRNECNQCKAPKPDGPGGGPGGSHMGGNYGDDRRGGRGGYDRGGYRGRGGDRGGFRGGRGG
modifications: left off: MBP, end not stated, state not stated

Assays:
[1] = tested on: MBP:FUS (full-length FUS droplets) / Kapβ2; assay: Turbidity assay of FUS droplet formation (OD 395 nm); format: biochemical; conditions: 8 μM Kapβ2, 8 μM MBP:FUS
[2] = tested on: GFP:FUS-LC / mCh:FUS-LC hydrogel; assay: Hydrogel binding assay, GFP:FUS-LC on mCh:FUS-LC hydrogel; format: biochemical; conditions: Kapβ2 0.1-10.0 µM; 1.0 µM GFP:FUS-LC
From the text: Expression plasmids for recombinant proteins (GFP/mCherry fusion LC-domain of FUS (residue 2–214, GFP/mCh:FUS-LC) and GFP/mCherry fusion LC-domain of hnRNPA2 (residue 181–341, GFP/mCh:hnRNPA2-LC)) were obtained from the Steven L. McKnight Laboratory. Expression plasmid for GFP:FUS-LC fusion NLS (residue 501–526, GFP:FUS-LC:NLS), mCh fusion LC-domain of TDP43 (residue 262–414, mCh:TDP43-LC), and GFP-tagged cNLS (residue 78–99) fusion TDP43-LC (GFP:cNLS:TDP43-LC) were constructed using In-Fusion HD Cloning Kit (Takara Bio, Inc.). GFP/mCh:FUS-LC, GFP:FUS-LC:NLS, and GFP/mCh:hnRNPA2-LC were expressed in E. coli BL21(DE3) cells with 0.5 mM IPTG at 20 °C overnight and purified by Ni-NTA Agarose (FUJIFILM Wako Pure Chemical Corporation), as described in a previous study. GFP:cNLS:TDP43-LC were expressed with 1.0 mM IPTG at 37 °C for 3 h and mCh:TDP43-LC were expressed with 0.5 mM IPTG at 16 °C overnight. GFP:cNLS:TDP43-LC and mCh:TDP43-LC were purified by Ni-NTA as described in a previous study[48] with some modifications. […] Relative intensity of GFP signals across the hydrogel droplets were measured in triplicate by using the profile plot mode in ImageJ. […]

[3] = tested on: GFP:FUS-LC:NLS / mCh:FUS-LC hydrogel; assay: Hydrogel binding assay, GFP:FUS-LC:NLS on mCh:FUS-LC hydrogel; format: biochemical; conditions: Kapβ2 0.1-1.0 µM; PR20 with 1.0 µM Kapβ2
Protocol: The experiment was independently repeated three times with similar results. Here, 10 μm scale bars are shown in the image. e Graphical description of hydrogel binding assay. Hydrogels of mCh:LC-domain accumulate GFP:LC-domain as it co-polymerizes. f Hydrogel binding assay for FUS-LC in the absence and presence of Kapβ2. mCh:FUS-LC (lower images) were incubated with 1.0 µM of GFP (left panel) or 1.0 µM of GFP:FUS-LC:NLS (right panel) in the presence of different concentrations of Kapβ2 (left to right: 0.1, 0.3, and 1.0 µM). g Quantitative analysis of Fig. 1f. Relative intensity of GFP signals is shown as the mean of three independent experiments ± SD, analyzed by one-way ANOVA followed by Dunnett’s multiple comparison test (**P < 0.01, ***P < 0.001). h Hydrogel binding assay for FUS-LC in the absence and presence of Kapβ2 and/or PR20. Hydrogel droplets of mCh:FUS-LC (lower images) were incubated with 1.0 µM of GFP (left panel) or GFP:FUS-LC:NLS (right panel). GFP:FUS-LC:NLS containing Kapβ2 (1.0 µM) was challenged for homotypic polymer extension in the absence or presence of different concentration of PR20. i Quantitative analysis of Fig. 1h. Relative intensity of GFP signals is shown as the mean of three independent experiments ± SD, analyzed by one-way ANOVA followed by Dunnett’s multiple comparison test (**P < 0.01). Source data are provided as a Source Data file. […]

[4] = tested on: FUS droplets (MBP:FUS/MBP:FUS:EGFP) / Kapβ2; assay: Fluorescence microscopy of FUS droplets; format: biochemical; conditions: 16 μM Kapβ2, 16 μM Kapβ2–M9M complex, 50 μM PR20, repeated three times
Kapβ2 = assay: Solution NMR (1H-13C methyl) of labelled Kapβ2; format: binding; conditions: comparison of perturbations by PR20, M9M and FUS-ΔNLS
Protocol: The Kapβ2 expression plasmid was transformed into BL21(DE3) cells. The protein samples with ^1H,^13C-labeled methyl groups in deuterium background were prepared as described in a previous study. The cells were grown in medium with ^15NH4Cl (2 gL^−1, CIL) and ^2H7-glucose (2 g L^−1, CIL) in 99.9% ^2H2O (Isotec). The precursors for methyl groups of Ile, Val, and Leu, α-ketobutyric acid (50 mg L^−1) and α-ketoisovaleric acid (80 mg L^−1), and [^13CH3] methionine (50 mg L^−1) were added to the culture 1 h before the addition of IPTG. Protein expression was induced by the addition of 0.5 mM IPTG at OD600 ~ 0.6, followed by ~16 h of incubation at 25 °C. […] Protein concentration was determined spectrophotometrically at 280 nm using a corresponding extinction coefficient.
The isotopically labeled Kapβ2 was prepared in the NMR buffer containing 20 mM ^2H-Tris pH 7.4, 150 mM NaCl, 2 mM MgCl2, 2 mM DTT, and 2% glycerol, concentrated to 20 μM. […] Perturbation of the side chain methyl resonances were each monitored using ^1H-^13C heteronuclear multiple quantum coherence. […] The perturbations of the resonances were evaluated based on chemical shift change or intensity change. […]
In order to investigate the interaction between Kapβ2 and PR poly-dipeptide by NMR, the NMR spectra of the isotopically labeled Kapβ2 in the absence and presence of the synthetic peptide of PR20:HA were measured. […]

Molecule	Effect of Kapβ2 on FUS droplet formation (turbidity) [1]	Effect on hydrogel binding of GFP:FUS-LC [2]	Effect on hydrogel binding of GFP:FUS-LC:NLS [3]	Effect on FUS droplets (microscopy) [4]	Binding site on Kapβ2 by NMR (Kapβ2)
B1	kept FUS from changing into liquid-like droplets	not blocked	blocked by Kapβ2	FUS droplets are dissolved by Kapβ2	
B2					the binding site for FUS-ΔNLS does not overlap with that for PR20

Source: paper PMC8421406, “C9orf72-derived arginine-rich poly-dipeptides impede phase modifiers” (Nature Communications, 2021)
